Read-outs that look alike come from different tables or passages of the source.

Here are results for six molecules from patent US20210238292A1 (VACCINEX, published 2021).

Test [1] deals with T1, Cynomolgus CCR8-ECD-Fc (cynomolgus monkey).
T1 construct: also called CyCCR8-ECD-Fc; Cynomolgus CCR8-Fc
T1 chain: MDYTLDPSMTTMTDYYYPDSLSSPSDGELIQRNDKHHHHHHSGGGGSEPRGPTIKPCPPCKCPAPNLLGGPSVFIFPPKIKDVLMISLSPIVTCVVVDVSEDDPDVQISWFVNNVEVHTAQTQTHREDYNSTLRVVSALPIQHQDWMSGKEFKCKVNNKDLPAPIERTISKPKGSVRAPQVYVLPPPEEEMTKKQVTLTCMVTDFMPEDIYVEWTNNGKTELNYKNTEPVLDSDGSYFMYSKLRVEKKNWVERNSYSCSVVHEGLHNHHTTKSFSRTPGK
The experiment in a line: binding to CyCCR8-ECD-Fc protein, OD450-570 nm.

Test [2] concerns the target T2, Human CCR8-ECD-Fc (human).
T2 construct: also called HuCCR8-ECD-Fc; huCC8-ECD-Fc
T2 chain: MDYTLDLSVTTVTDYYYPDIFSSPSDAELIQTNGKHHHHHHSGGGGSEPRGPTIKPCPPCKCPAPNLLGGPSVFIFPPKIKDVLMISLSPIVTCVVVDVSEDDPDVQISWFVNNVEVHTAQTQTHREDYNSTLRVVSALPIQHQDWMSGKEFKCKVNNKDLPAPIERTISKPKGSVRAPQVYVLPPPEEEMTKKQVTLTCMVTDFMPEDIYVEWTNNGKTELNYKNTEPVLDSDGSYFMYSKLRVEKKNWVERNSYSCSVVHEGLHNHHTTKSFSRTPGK
The experiment in a line: binding to HuCCR8-ECD-Fc protein, OD450-570 nm.

Test [3] concerns the target T3, cynomolgus monkey CCR8 expressed on cells (cynomolgus monkey, UniProt G7NYJ2 1-355).
T3 construct: whole, on cells; also called cyno CCR8; CyCCR8
The experiment in a line: on-cell affinity, flow cytometry on 293T cells expressing cyno CCR8. For orientation: A flow cytometer gives signals particle by particle.

The target in test [4] is T4, human CCR8 (C-C chemokine receptor type 8) expressed on cells (human, UniProt P51685 1-355).
T4 construct: also called HuCCR8
T4 sequence (P51685 whole entry): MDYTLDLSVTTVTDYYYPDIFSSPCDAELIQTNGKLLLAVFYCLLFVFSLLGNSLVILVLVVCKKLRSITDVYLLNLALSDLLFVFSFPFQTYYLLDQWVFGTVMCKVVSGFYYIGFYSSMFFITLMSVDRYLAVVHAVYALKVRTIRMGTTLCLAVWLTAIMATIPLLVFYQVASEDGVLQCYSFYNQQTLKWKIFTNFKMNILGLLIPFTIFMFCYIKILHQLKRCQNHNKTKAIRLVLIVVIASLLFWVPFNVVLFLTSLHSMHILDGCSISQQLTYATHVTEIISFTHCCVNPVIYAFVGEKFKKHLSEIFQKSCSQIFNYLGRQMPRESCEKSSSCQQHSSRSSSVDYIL
The experiment in a line: on-cell affinity, flow cytometry on 293T cells expressing human CCR8.

Test [5] concerns the target T5, mouse CCR8 expressed on 293T cells (mouse, UniProt P56484 1-353).
T5 construct: whole, on cells
T5 sequence (looked up): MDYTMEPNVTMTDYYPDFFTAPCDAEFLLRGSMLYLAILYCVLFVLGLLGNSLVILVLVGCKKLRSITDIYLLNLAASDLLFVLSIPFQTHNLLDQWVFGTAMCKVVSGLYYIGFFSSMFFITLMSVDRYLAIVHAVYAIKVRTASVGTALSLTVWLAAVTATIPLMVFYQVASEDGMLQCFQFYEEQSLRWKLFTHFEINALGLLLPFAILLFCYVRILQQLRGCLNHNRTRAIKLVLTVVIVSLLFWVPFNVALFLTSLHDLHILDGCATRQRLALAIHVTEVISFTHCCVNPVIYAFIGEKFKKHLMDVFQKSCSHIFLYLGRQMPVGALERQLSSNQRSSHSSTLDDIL
The experiment in a line: flow cytometry, MoCCR8-293T cells, fold geomean over secondary alone.

Test [6] has as its target T2, Human CCR8-ECD-Fc. The experiment in a line: binding to HuCCR8-ECD-Fc protein, OD450-570nm.
For test [7], the target named is T1, Cynomolgus CCR8-ECD-Fc. The experiment in a line: binding to CynoCCR8-ECD-Fc protein, OD450-570nm.
Test [8] deals with T3, cynomolgus monkey CCR8 expressed on …. The experiment in a line: on-cell affinity, flow cytometry on 293T cells expressing cyno CCR8. This is another data set of the same source.
Target sequence in this assay (G7NYJ2 entry or part of it): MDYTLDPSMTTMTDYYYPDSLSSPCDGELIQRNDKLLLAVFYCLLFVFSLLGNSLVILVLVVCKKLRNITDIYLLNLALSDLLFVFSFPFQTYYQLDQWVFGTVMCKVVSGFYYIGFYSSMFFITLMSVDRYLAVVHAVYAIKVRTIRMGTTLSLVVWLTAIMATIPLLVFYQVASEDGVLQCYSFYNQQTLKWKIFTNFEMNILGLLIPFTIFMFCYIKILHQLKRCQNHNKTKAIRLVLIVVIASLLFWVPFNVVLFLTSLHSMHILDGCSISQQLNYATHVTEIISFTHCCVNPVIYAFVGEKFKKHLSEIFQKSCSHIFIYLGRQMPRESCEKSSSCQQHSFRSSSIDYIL
The target in test [9] is T4, human CCR8 (C-C chemokine receptor type …). The experiment in a line: on-cell affinity, flow cytometry on 293T cells expressing human CCR8. This is another data set of the same source.
Test [10] has the same target. The experiment in a line: flow cytometry, HuCCR8-293T cells, fold geomean over secondary alone.
Test [11] concerns the target T5, mouse CCR8 expressed on 293T cells. The experiment in a line: flow cytometry, MoCCR8-293T cells, fold geomean over secondary alone. This is another data set of the same source.
Test [12] deals with T1, Cynomolgus CCR8-ECD-Fc. The experiment in a line: binding to CyCCR8-ECD-Fc protein, OD450-570 nm.
The target in test [13] is T2, Human CCR8-ECD-Fc. The experiment in a line: binding to HuCCR8-ECD-Fc protein, OD450-570 nm.
Test [14] has as its target T5, mouse CCR8 expressed on 293T cells. The experiment in a line: flow cytometry, MoCCR8-293T cells, fold geomean over secondary alone. This is another data set of the same source.
Test [15] addresses T2, Human CCR8-ECD-Fc. The experiment in a line: binding to HuCCR8-ECD-Fc protein, OD450-570nm.
The target in test [16] is T3, cynomolgus monkey CCR8 expressed on …. The experiment in a line: on-cell affinity, flow cytometry on 293T cells expressing cyno CCR8. This is another data set of the same source.
Target sequence in this assay (G7NYJ2 entry or part of it): as above
The target of test [17] is T4, human CCR8 (C-C chemokine receptor type …). The experiment in a line: on-cell affinity, flow cytometry on 293T cells expressing human CCR8. This is another data set of the same source.
The target is the same in test [18]. The experiment in a line: flow cytometry, HuCCR8-293T cells, fold geomean over secondary alone. The source holds these as a separate data set.
Test [19] deals with T5, mouse CCR8 expressed on 293T cells. The experiment in a line: flow cytometry, MoCCR8-293T cells, fold geomean over secondary alone. The source holds these as a separate data set.
Test [20] has as its target T6, amyloid precursor-like protein 2 (APLP2) (UniProt Q06481 32-763, limits assumed).
T6 construct: whole, on cells
The experiment in a line: on-cell Kd, antibody titration on cells expressing APLP2, flow cytometry.

The target of test [21] is T4, human CCR8 (C-C chemokine receptor type …). The experiment in a line: flow cytometry competition on Raji-CCR8 cells; competitor: fluorescently-conjugated BIOLEGEND anti-human CCR8 antibody at a single concentration. The protocol:
To characterize the binding cite of the CCR8 antibodies, CCR8 antibodies were incubated with Raji-CCR8 cells in a dose-dependent manner in 96-well plates at 4° C. for 30 min. Unbound CCR8 antibodies were washed away and the cells were incubated with a fluorescently-conjugated human monoclonal anti-CCR8 antibody (commercially available) at a single concentration for 30 min at 37° C. Upon completion of the experiment, the binding of the commercially available monoclonal CCR8 antibody was assessed by Flow Cytometry.

Test [22] concerns the target T5, mouse CCR8 expressed on 293T cells. The experiment in a line: flow cytometry, mouseCCR8-293T cells, fold geomean over secondary alone.
Test [23] has as its target T1, Cynomolgus CCR8-ECD-Fc. The experiment in a line: binding to CyCCR8-ECD-huFc protein (so in the source), OD45-570nm (so in the source).
Test [24] has as its target T2, Human CCR8-ECD-Fc. The experiment in a line: binding to HuCCR8-ECD-moFc protein (so in the source), OD45-570nm (so in the source).
Test [25] has as its target T1, Cynomolgus CCR8-ECD-Fc. The experiment in a line: binding to CyCCR8-ECD-Fc protein, OD450-570 nm.
Test [26] concerns the target T2, Human CCR8-ECD-Fc. The experiment in a line: binding to HuCCR8-ECD-Fc protein, OD450-570 nm.
In test [27] the target is T5, mouse CCR8 expressed on 293T cells. The experiment in a line: flow cytometry, MoCCR8-293T cells, fold geomean over secondary alone. The source holds these as a separate data set.
For test [28], the target named is T3, cynomolgus monkey CCR8 expressed on …. The experiment in a line: flow cytometry, CynoCCR8-293T cells, fold geomean over secondary alone.

T6 sequence (Q06481 32-763 limits assumed): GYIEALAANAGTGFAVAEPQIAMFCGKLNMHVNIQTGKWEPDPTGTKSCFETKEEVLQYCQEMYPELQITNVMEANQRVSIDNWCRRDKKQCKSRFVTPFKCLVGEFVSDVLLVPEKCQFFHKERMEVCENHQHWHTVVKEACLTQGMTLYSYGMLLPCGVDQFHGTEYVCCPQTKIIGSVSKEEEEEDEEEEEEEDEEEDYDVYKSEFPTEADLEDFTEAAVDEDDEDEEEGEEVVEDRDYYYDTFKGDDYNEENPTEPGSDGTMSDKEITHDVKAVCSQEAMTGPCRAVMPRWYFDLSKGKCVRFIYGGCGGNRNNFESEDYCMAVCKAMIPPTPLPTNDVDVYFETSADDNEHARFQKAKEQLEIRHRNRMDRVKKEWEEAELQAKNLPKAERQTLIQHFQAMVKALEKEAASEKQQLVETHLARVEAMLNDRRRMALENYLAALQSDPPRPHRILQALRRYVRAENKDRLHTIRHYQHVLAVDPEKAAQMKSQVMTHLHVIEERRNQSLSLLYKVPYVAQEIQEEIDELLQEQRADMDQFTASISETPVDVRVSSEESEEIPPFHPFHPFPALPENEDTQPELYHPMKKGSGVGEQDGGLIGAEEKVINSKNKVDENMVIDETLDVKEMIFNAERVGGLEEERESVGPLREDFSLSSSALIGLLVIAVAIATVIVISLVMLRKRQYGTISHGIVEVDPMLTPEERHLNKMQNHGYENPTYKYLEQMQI

B1: anti-CCR8-2 (antibody, V domains shown)
VH: EVQLLESGGGLVQPGGSLRLSCAAGGFTFSAYTMNWVRQAPGKGLEWVSAISASGGRTYYADSVKGRFTISRDNSKNTLYLQMNSLRAEDTAVYYCARRFARGWFDPWGQGTLVTVSS
VL: QSVLTQPPSVSAAPGQKVTISCSGSSSNIGNNYVSWYQQLPGTAPKLLIYDNNKRPSGIPDRFSGSKSGTSATLGITGLQTGDEADYYCGTWDSSLSAWVFGGGTKLT
notes: Cloned into mammalian expression vectors; human IgG; also called heavy chain H23727
As usually defined, the Kd is the constant that tells how readily two partners part at equilibrium. For B1, the binding result is “binds” in the test with Cynomolgus CCR8-ECD-Fc [1], “binds” with Human CCR8-ECD-Fc [2] and “no binding (tested: 10 ug/ml)” in test [5]. In addition, the values for the Kd in [3] and in [4] were 0.94 nM and 0.41 nM, respectively.

B2: anti-CCR8-2-6 (antibody, V domains shown)
VH: EVQLVESGGGLVQPGRSLRLSCAASGFTFDDYAMHWVRQAPGKGLEWVSGISWNSGSIGYADSVKGRFTISRDNSKNSLYLQMNSLRAEDTALYYCARGRVSYRESLRFDYWGQGTLVT
VL: QSVLTQPPSVSAAPGQKVTISCSGSSSNIGNNYVSWYQQLPGTAPKLLIYDNNKRPSGIPDRFSGSKSGTSATLGITGLQTGDEADYYCGTWDSSLSAWVFGGGTKLT
notes: Human IgG
The term EC50 (read off the curve) denotes the midpoint of the concentration-response curve. With B2, the “EC50 (read off the curve)” value with Human CCR8-ECD-Fc [6] was about 0.04 µg/mL; in the test with Cynomolgus CCR8-ECD-Fc [7], about 0.04 µg/mL; in [10], about 2 µg/mL. Besides, the equilibrium dissociation constant (Kd) in [8] came out at 4.5 nM; in test [9] it was 1.5 nM. Further, the binding result in test [11] is reported as “no binding (tested: 10 ug/ml)”.

B3: anti-CCR8-2-1 (antibody, V domains shown)
VH: EVQLLESGGGLVQPGGSLRLSCAARGFIFSGYTMLWVRQAPGKGLEWVSAITASGGRTYYADSVKGRFTISRDNSKNTLYLQMNSLRAEDTAVYYCARRFARGWFDPWGQGTLVTVSS
VL: QSVLTQPPSVSAAPGQKVTISCSGSSSNIGNNYVSWYQQLPGTAPKLLIYDNNKRPSGIPDRFSGSKSGTSATLGITGLQTGDEADYYCGTWDSSLSAWVFGGGTKLT
notes: Human IgG from a mammalian expression vector
As for B3, the binding result with Cynomolgus CCR8-ECD-Fc [12] is “binds”; with Human CCR8-ECD-Fc [13] it was “binds”; in [14], “no binding (tested: 10 ug/ml)”. In addition, the Kd in test [3] came to 1.09 nM; in test [4], 0.54 nM.

B4: anti-CCR8-1 (antibody, human IgG1, V domains shown)
VH: QVQLVQSGAEVKKPGASVKVSCKASGYTFTSYYMHWVRQAPGQGLEWMGIINPSGGSTSYAQKFQGRVTMTRDTSTSTVYMELSSLRSEDTAVYYCARAVRNRFRFDYWGQGTLVTVSS
VL: QSALTQPASVSGSPGQSITISCTGTSSDVGSYNLVSWYQQHPGKAPKLMIYEVSKRPSGVSNRFSGSKSGNTASLTISGLQAEDEADYYCSSYAGSSTFVVFGGGTKLTVL
On to B4, for which the results for the binding result (with Human CCR8-ECD-Fc [15]; in [19]; in test [20]) were “binds”, “no binding (tested: 10 ug/ml)” and “no binding (tested: 100 nM (top of the affinity axis))”, respectively. The Kd in [16] was over 50 nM; in [17], 0.41 nM. Moreover, the “EC50 (read off the curve)” value in [18] is about 1 µg/mL. For the same molecule, the “IC50 (read off the curve)” value in test [21] was about 0.02 µg/mL.

B5: anti-CCR8-1-5 (antibody, V domains shown)
VH: QVQLVQSGAEVKKPGASVKVSCKASGYTFTSYYMHWVRQAPGQGLEWMGIINPSGGSTSYAQKFQGRVTMTRDTSTSTVYMELSSLRSEDTAVYYCARGVGNGFRFDYWGQGTLVT
VL: QSALTQPPSVSGSPGQSITISCSGTSSDVGSYNLVSWYQQEPGKAPKLIIYEVNKRPSGVSNRFSGSKSGNTASLTISGLQAEDEADYHCSSYAGSSTYVVFGGGTKLTVL
notes: Parental-1 heavy chain with a shuffled lambda light chain; Human IgG expressed in CHO cells
B5: the Kd was 48.6 nM in [16] and 1.36 nM in [17]. Moreover, the binding result in test [22] is recorded as “no binding (tested: 10 ug/ml)”; with Cynomolgus CCR8-ECD-Fc [23], “binds”; in the test with Human CCR8-ECD-Fc [24], “binds”.

B6: anti-CCR8-2-2 (antibody, V domains shown)
VH: EVQLLESGGGLVQPGGSLRLSCAAGGFTFSAYTMNWVRQAPGKGLEWVSAISASGGRTYYADSVKGRFTISRDNSKNTLYLQMNSLRAEDTAVYYCARRFARGWFDPWGQGTLVT
VL: QSVLTQPPSVSAAPGQRVTISCSGSTSNIGNHYVSWYQQLPRAVPKLVIYDNDKRPSGISDRFSGSRSGTSATLDISGLQAGDEADYYCATWDYSLTAVVFGGGTKLTVL
notes: Heavy chain of anti-CCR8-2 (H23727) cross-paired with a shuffled lambda light chain; Human IgG
For the molecule B6, the figures for the binding result (with Cynomolgus CCR8-ECD-Fc [25]; in the test with Human CCR8-ECD-Fc [26]; in test [27]) were “binds”, “binds” and “no binding (tested: 10 ug/ml)”, respectively. For the same molecule, the values for the dissociation constant (Kd) in test [3] and in test [4] were 1.6 nM and 0.8 nM, respectively. Besides, the concentration giving a half-maximal response (EC50 (read off the curve)) in test [28] was about 1 µg/mL.
